The assay deals with human Ptch (SEQ ID NO:4), overexpressed on transfected human 293 embryonic kidney cells (human) (UniProt Q13635). Description: Scatchard analysis of 125I-Shh displacement curves, 293 cells expressing Ptch.

Data on 3 substances can be found in patent US6709838.

Turning to “Dhh (SEQ ID NO:13) (from UniProt Q61488 23-198) (ligand)”, the Kd stood at 2.6 nM.

For the substance “Ihh (SEQ ID NO:29) (from UniProt P97812 28-202) (ligand)”, the Kd came to 1 nM. In turn, “Shh (SEQ ID NO:14), 19kD amino terminal fragment of murine Shh (from UniProt Q62226 25-198) (ligand)” gave a Kd of 1 nM. This counts as single-digit nanomolar.

As a reminder, the Kd is the free concentration of one partner at which half of the binding sites on the other are occupied at equilibrium, for simple one-to-one binding. Lower therefore signals tighter binding.
